Reference: paper PMC7351598
Like-named read-outs stand apart in the source and are kept apart here.

Assays:
Experiment in all cases: MST
[1] = target: 6xHis-MBP-SpyCas9 (Streptococcus pyogenes) (UniProt Q99ZW2)
[2] = target: 6xHis-MBP-SpyCas9 (Streptococcus pyogenes) (UniProt Q99ZW2); remark: listed apart in the source
[3] = target: 6xHis-MBP-deadSpyCas9 (Streptococcus pyogenes) (UniProt Q99ZW2)
[4] = target: Cas9-gRNA prebound to AcrIIA2b.3 (Streptococcus pyogenes | not stated) (UniProt Q99ZW2)
[5] = target: 6xHis-MBP-SpyCas9(H840A) (Streptococcus pyogenes) (UniProt Q99ZW2)
[6] = target: 6xHis-MBP-SpyCas9(D10A) (Streptococcus pyogenes) (UniProt Q99ZW2)

Row | Kd [1] [nM] | Kd [2] [nM] | Kd [3] [nM] | Kd [4] [nM] | Kd [5] [nM] | Kd [6] [nM] | Substance
1 | 20 |  |  |  |  |  | AcrIIA2b.3 (natural protein)
2 | 23 | 31 | 905 | 24 | 2000 | 38 | AcrIIA1 (natural protein)
